# Measurements from the supplement of paper PMC12764529.
# ± gives the half width of the 95% confidence interval.
# Experiment: folding stability dG unfold from chymotrypsin proteolysis; higher = more stable
# Procedure, shortened: (§1)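 Digests were run with trypsin and chymotrypsin at 11 concentrations in threefold dilutions, plus a no-protease condition, on designed mini-proteins in a PA-tagged cDNA display construct. The mini-proteins were under 80 residues, had no cysteine, and were kept only when AlphaFold2 dimer inter-PAE was above 15. After sequencing, Bayesian fitting of the counts gave K50, from which unfolding free energy was derived against a sequence-predicted unfolded-state K50 and a shared folded-state K50, per protease or combined.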
row,Sequence,folding stability dG unfold
1,MMLIIKVKNKKTGKTETIKIDMSVEEIKNAIKELKKKNPNAKVTIIGVKTEEVRKALKEAGIEKIEVKPLPS [r1_114_TrROS_Hall],3.5 ± 0.22 kcal/mol
2,SMMKIRIVNKETKEEIEEIEIEKNEDGSYTIKIKIKKNGKTYEIEIKLPKGMKIEELLKKLGIEKAEIEPSA [r9_492_TrROS_Hall],1.98 ± 0.11 kcal/mol
3,SAGGMVKVLKVETYPGTGEVIVTMELPGNTVATVRIPRAPDAPLTVSPDGVVTVPTAPVTELETTAPSAGGS [r16_515_JUSTAS],0.591 ± 0.054 kcal/mol
4,SAGGSAGGSMPKTYSFKVKSKEEIVKLIEELKKLGAKKVEVKELPDGYELYVEVGDSVIKVYSSAGGSAGGS [r12_846_TrMRF],1.1 ± 0.16 kcal/mol
5,SAGGSAGGSSFSVEVIENPDSDVILRKIHFDNFTVIPLFDPSTGKIVSVVVQFPDGSWYTFPLSAGGSAGGS [r12_563_TrMRF],2.78 ± 0.053 kcal/mol
6,SAGGPETRTFTIPAAPATVTVTLEKVGDGYRVSLTLTNPDGQTVEVPPDQPVVIPAGASVGAALAPESAGGS [r16_669_TrMRF],1.53 ± 0.091 kcal/mol
7,SAGGSAGGSAGGKELEIVLYDKETNVLVTAKVRMENGKLTITEVKVEKVKPPKLPPGVKPSAGGSAGGSAGG [r7_276_TrROS_Hall],2.44 ± 0.071 kcal/mol
8,SAGMFVKIKFKTADKTVEELVKKIKEETGIPENAKITVIAEKSEDEGFVVIIEFDEEEVRDKIKEIVGSAGG [r19_215_TrMRF],1.35 ± 0.062 kcal/mol
9,SAGGKMVIVKIRIKERKVKVEKTKDGKEKKVEVEEKEKEITLIVEGSEEEVKKLAEELEKLGLEVEVISAGG [r13_452_TrROS_Hall],2.52 ± 0.079 kcal/mol
10,SAGGSAGGSIKIPPGQMIHIRYEHGGKKREYSFTIDPNDGKIDEIIPPDNLPGYKIEEIHIVPSAGGSAGGS [r12_6_TrROS],0.729 ± 0.3 kcal/mol
11,SAKIVIIPLGDKAIIIITDENGKTKTIELPGISKIEIKGDHLKIYDPKTGKLIIPPNWKGKDIIIIPGKSAG [r14_83_TrMRF],3.32 ± 0.59 kcal/mol
12,SMEMTPEERLLALLREARKKHPGKKIVLSVEEIEELLGVDLSAEEIAKLLKEELGIDEVEIVEEEEPEEESA [r9_738_TrROS_Hall],3.375 ± 0.031 kcal/mol
13,SAGGSAGGSAGKTLVFKTKEEALKAIEEEAKKKGYKKVKIEITEVGPDGKVKVKVKIEKKSAGGSAGGSAGG [r17_430_TrROS_Hall],1.34 ± 0.18 kcal/mol
14,SAGGSAGGSAGMVVSVDRATGTFTATDPALGTTTTVPGSEEEVRAYWAERFPDRPVTITASAGGSAGGSAGG [r11_614_JUSTAS],-0.221 ± 0.38 kcal/mol
15,SAGGSAGGSAGGKKIEIPGFEITKVEPLENDSVIAEGKFKNGKKYRILFLPNKVYINDESAGGSAGGSAGGS [r10_312_TrMRF],0.44 ± 0.2 kcal/mol
16,SASPPRRFMIKVTYPDGKTTLSYGDDPEQTRAALEAQIAEEHPGNYTIEYTELSPDEWASPEKAEALLSSAG [r14_900_JUSTAS],1.71 ± 0.073 kcal/mol

# Experiment: folding stability dG unfold (combined trypsin and chymotrypsin); higher = more stable
# Procedure, shortened: as §1
row,Sequence,folding stability dG unfold
1,SAGGSAGGSAMKTIEIDIVIKNKETGEYYKAKAKIFENEDGSLIIEIEFEKNGKTLLIVLPPSAGGSAGGSA [r18_426_TrROS_Hall],3.61 ± 0.2 kcal/mol
2,SMKPPVKVRIRIYNPETGEEIATIEIEFLPDGTVKVTIEIDGKKYEIEMSLDELLEALKKLPFKIVEIEPSA [r9_470_TrROS_Hall],3.57 ± 0.1 kcal/mol
3,SPTIKASYDPETGVLTVYVKLRDPETGEPIPAEAVAAKIKELFPDAEILDIEPNPDGYVKITVKVAPDAVSA [r9_87_TrMRF],3.72 ± 0.071 kcal/mol
4,SAGGSAGGSAGGSGSKEPKYYYRVVVEDDGNPVVRTYAPDEPLPAPANLKVFPFLADEESAGGSAGGSAGGS [r4_107_TrMRF],0.452 ± 0.25 kcal/mol
5,SAGGMITLTVTREDWDTVYAKLKAEKNVTVKVVKGNTWSTYPASEVKALREEIPADPNEPLTLEIVESAGGS [r16_377_JUSTAS],0.283 ± 0.23 kcal/mol
6,SAGGSAGGSAGGPPYEVNIYIKFRPPDGKPPTFPIDVNVNDPEDAKDELEDNFPNMEIVSAGGSAGGSAGGS [r10_1248_TrROS],0.919 ± 0.23 kcal/mol
7,SEEEIEERIKKLAEELGFKVTEIKIEKTDNKLTVTVTITLPNGKKLTFTVTRDKNGKLTFTPEQLKKALKSA [r9_85_TrROS_Hall],3.21 ± 0.07 kcal/mol
8,SAPKIEILEVDPNRVLIKIDATPEEIEKIVEEIKKKFPGVKVETEKLEGEKKYLIKVIPVPEVPEELKKSAG [r14_600_TrMRF],1.1 ± 0.14 kcal/mol
9,SAGGLAEYIARYLQENDPRARVEAEEGDVLDGVRVIRVRVERVDDAFGGDIPSSADFILVIPAGAPPTSAGG [r19_8_TrMRF],1.38 ± 0.089 kcal/mol
10,SAGGSAGGSAGKKITIELPEGVKVYKLPNENDYIIVEDEKTKEKYIFKIKDGKVELIEKLSAGGSAGGSAGG [r11_1036_TrROS_Hall],1.47 ± 0.14 kcal/mol
11,SAGGSAGGSAGGAPEKEVTVRVRITVFRDGKPVEEIELEPGQTLTFPPGARVVIEVELLPSAGGSAGGSAGG [r7_141_TrROS_Hall],3.39 ± 0.17 kcal/mol
12,SAGGRIHIPIPLNQAREILKKLAPDGRDVTAEPQGPSKDNVYYTIEFEPPKNGNEVDIEIWIPPPGDSAGGS [r16_486_TrROS],0.0968 ± 0.18 kcal/mol
13,SAGGKLTELIRSLFEKLNVPLEPLETGPNSAIFRFPGKPGVFELPGNSRIVIFEDGLVVVVAPPNDLSAGGS [r8_297_TrMRF],1.61 ± 0.081 kcal/mol
14,SAGMMTIEIELKNGKKIKIEVEKKNGKYIIKITVYDKNGKKVKEVKIEVPKKNMSLEEIIKEALKKLLKSAG [r5_630_TrROS_Hall],3.73 ± 0.47 kcal/mol
15,ITITYDKETGELTVTLSVEIEREDGYLVRVSVTIRINPNGEIKIEKKIEVIKLPPAEVKLTDEELEKLKKES [r1_4_TrROS_Hall],2.49 ± 0.27 kcal/mol
16,MMLIIKVKNKKTGKTETIKIDMSVEEIKNAIKELKKKNPNAKVTIIGVKTEEVRKALKEAGIEKIEVKPLPS [r1_114_TrROS_Hall],3.51 ± 0.31 kcal/mol

row,Sequence,folding stability dG unfold
1,SMMKIRIVNKETKEEIEEIEIEKNEDGSYTIKIKIKKNGKTYEIEIKLPKGMKIEELLKKLGIEKAEIEPSA [r9_492_TrROS_Hall],1.79 ± 0.11 kcal/mol
2,SAGGMVKVLKVETYPGTGEVIVTMELPGNTVATVRIPRAPDAPLTVSPDGVVTVPTAPVTELETTAPSAGGS [r16_515_JUSTAS],0.322 ± 0.049 kcal/mol
3,SAGGSAGGSMPKTYSFKVKSKEEIVKLIEELKKLGAKKVEVKELPDGYELYVEVGDSVIKVYSSAGGSAGGS [r12_846_TrMRF],1.24 ± 0.13 kcal/mol
4,SAGGSAGGSSFSVEVIENPDSDVILRKIHFDNFTVIPLFDPSTGKIVSVVVQFPDGSWYTFPLSAGGSAGGS [r12_563_TrMRF],2.51 ± 0.11 kcal/mol
5,SAGGPETRTFTIPAAPATVTVTLEKVGDGYRVSLTLTNPDGQTVEVPPDQPVVIPAGASVGAALAPESAGGS [r16_669_TrMRF],1.35 ± 0.1 kcal/mol
6,SAGGSAGGSAGGKELEIVLYDKETNVLVTAKVRMENGKLTITEVKVEKVKPPKLPPGVKPSAGGSAGGSAGG [r7_276_TrROS_Hall],2.14 ± 0.079 kcal/mol
7,SAGMFVKIKFKTADKTVEELVKKIKEETGIPENAKITVIAEKSEDEGFVVIIEFDEEEVRDKIKEIVGSAGG [r19_215_TrMRF],1.45 ± 0.087 kcal/mol
8,SAGGKMVIVKIRIKERKVKVEKTKDGKEKKVEVEEKEKEITLIVEGSEEEVKKLAEELEKLGLEVEVISAGG [r13_452_TrROS_Hall],2.28 ± 0.14 kcal/mol
9,SAGGSAGGSIKIPPGQMIHIRYEHGGKKREYSFTIDPNDGKIDEIIPPDNLPGYKIEEIHIVPSAGGSAGGS [r12_6_TrROS],0.307 ± 0.34 kcal/mol
10,SAKIVIIPLGDKAIIIITDENGKTKTIELPGISKIEIKGDHLKIYDPKTGKLIIPPNWKGKDIIIIPGKSAG [r14_83_TrMRF],2.9 ± 0.34 kcal/mol
11,SMEMTPEERLLALLREARKKHPGKKIVLSVEEIEELLGVDLSAEEIAKLLKEELGIDEVEIVEEEEPEEESA [r9_738_TrROS_Hall],3.01 ± 0.069 kcal/mol
12,SAGGSAGGSAGKTLVFKTKEEALKAIEEEAKKKGYKKVKIEITEVGPDGKVKVKVKIEKKSAGGSAGGSAGG [r17_430_TrROS_Hall],1.3 ± 0.19 kcal/mol
13,SAGGSAGGSAGMVVSVDRATGTFTATDPALGTTTTVPGSEEEVRAYWAERFPDRPVTITASAGGSAGGSAGG [r11_614_JUSTAS],-0.0207 ± 0.15 kcal/mol
14,SAGGSAGGSAGGKKIEIPGFEITKVEPLENDSVIAEGKFKNGKKYRILFLPNKVYINDESAGGSAGGSAGGS [r10_312_TrMRF],0.357 ± 0.16 kcal/mol
15,SASPPRRFMIKVTYPDGKTTLSYGDDPEQTRAALEAQIAEEHPGNYTIEYTELSPDEWASPEKAEALLSSAG [r14_900_JUSTAS],2.01 ± 0.078 kcal/mol
